Drawing on article PMC7110780, “Multimodular fused acetyl–feruloyl esterases from soil and gut Bacteroidetes improve xylanase depolymerization of recalcitrant biomass” (Biotechnology for Biofuels, 2020), this text covers Km, kcat and kcat/Km for two proteins.

Common to all, as to test: purified protein
Common to all, as to format: biochemical, Flavobacterium johnsoniae

Substrate in data set [1]: CC(=O)Oc1ccc2c(C)cc(=O)oc2c1
Particulars: 100 mM buffer.

Substrate in data set [2]: COC(=O)/C=C/c1ccc(O)cc1
The settings on record: pH 6.5, 25 °C, 100 mM buffer.

Substrate in data set [3]: COC(=O)/C=C/c1cc(OC)c(O)c(OC)c1
The settings on record: pH 6.5, 25 °C, 100 mM buffer.

Substrate in data set [4]: COC(=O)/C=C/c1ccc(O)c(O)c1
Particulars: pH 6.5, 25 °C, 100 mM buffer.

Substrate in data set [5]: COC(=O)/C=C/c1ccc(O)c(OC)c1
The settings on record: pH 6.5, 25 °C, 100 mM buffer.

The term Km denotes the substrate concentration at which the rate is half of its maximum. Usually kcat stands for the maximal rate divided by the concentration of active sites. Broadly, the kcat/Km is the second-order rate constant that governs catalysis at low substrate concentration.

B1: FjCE1 (Flavobacterium johnsoniae UW101) (protein)
chain: FDEVNANAPQGKVEIVSYESKTVGSTRKATIYTPPGFNKNKKYPVLYLLHGIGGDEKEWLNGGQPNVILDNLYADGKLEPMIVVMPNGRAMKDDRAGGDIMAADKVKAFSVFEKDLLNDLIPFIEKKYPVLKDREHRAIAGLSMGGGQSLNFGLGNLDQFAWVGAFSAAPNTKIGTELLAKPEEAKKKLKLLWISCGDKDWLIENSTRTHDYLAKNNVPHIYYIEPGVHDFKVWKNGLYMFSQFLFKEVDPLVFQKYSISAYTIEK
notes: domain borders not in main text
As for B1, the Km in the data set “purified protein [1]” (pH 6.5, 25 °C) was found to be 70 ± 10 µM; in the data set “purified protein [2]”, 390 ± 120 µM; in the data set “purified protein [3]”, 140 ± 20 µM; in “purified protein [4]”, 340 ± 100 µM; in the data set “purified protein [5]”, 110 ± 20 µM. Further, the kcat stood at 0.61 ± 0.03 s⁻¹ in the data set “purified protein [1]” (pH 6.5, 25 °C); 1.5 ± 0.3 s⁻¹ in the data set “purified protein [2]”; 1.8 ± 0.1 s⁻¹ in “purified protein [3]”; 0.83 ± 0.14 s⁻¹ in “purified protein [4]”; 2.5 ± 0.2 s⁻¹ in the data set “purified protein [5]”. Further, the kcat/Km in the data set “purified protein [1]” (pH 6.5, 25 °C) came to 8700 ± 1700 M⁻¹ s⁻¹; in the data set “purified protein [2]”, 3900 ± 1400 M⁻¹ s⁻¹; in “purified protein [3]” it was 13000 ± 2200 M⁻¹ s⁻¹; in the data set “purified protein [4]”, 2700 ± 1000 M⁻¹ s⁻¹; in “purified protein [5]” it was 23100 ± 4500 M⁻¹ s⁻¹.

B2: FjCE6 (Flavobacterium johnsoniae UW101) (protein)
chain: SQDPNFHVYLSFGQSNMEGFAKIEPQDKTGVNERFQVLSAVDCPEMGREKGKWYTAVPPLCRCTTGLTPMDYFGRTMISNLPQNIKVGVVNVAVGGCKIELFDKNNFESYVANSPDWLKNIVKQYDGNPYGRLVEMAKIAQKKGVIKGILLHQGESNTGDTLWPQKVKIVYDNLIKDLNLDPKKVPLLSGETVNEDQNGKCGSMNKIIAKLPQVLPNSYIISSKGCKADADFLHFSPEGYRELGKRYADKMLSLSGYMLFNGKE
notes: as for B1
For the protein B2, in “purified protein [1]” (pH 8, 25 °C), the Km came out at 150 ± 20 µM, the kcat came out at 6.7 ± 0.2 s⁻¹ and the kcat/Km came to 43400 ± 4400 M⁻¹ s⁻¹.
